Data taken from the supplement of paper PMC7125110.
± gives the standard error. For part of these data: Fewer inactive variants are shown than the library holds.

B1: glmS ribozyme (parent)
chain: AUAAAAGCGCCAGAACUACAGAAAUGUAGUUGACGAGGAGGAGGUUUAUCGAAUUUUCGGCGGAUGCCUCCAAA

What was measured:
Settings in all cases: with glucosamine-6-phosphate
[1] = variants of: B1; assay: kcat; higher = faster cleavage; RNA array
Outline: (§1)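 Barcoded ribozyme variants on sequenced MiSeq chips were transcribed in situ by E. coli RNA polymerase and followed at 37 °C through a hybridised Cy3 probe. Glucosamine-6-phosphate at 40 μM to 10 mM in HEPES/KCl/Mg(OAc)2 buffer was flowed in, and tiles were imaged over ~14 h. Signals were normalised to baseline and to non-cleaving reference variants, and per-tile medians were fit to one- or two-exponential decays to give kobs. Weighted Michaelis–Menten fits across concentrations gave kcat and KM.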

[2] = variants of: B1; assay: KM; higher = weaker cofactor use; RNA array
Outline: as §1

[3] = variants of: B1; assay: self-cleavage kobs at 40 uM GlcN6P; higher = faster cleavage; RNA array
Outline: as §1

[4] = variants of: B1; assay: self-cleavage kobs at 160 uM GlcN6P; higher = faster cleavage; RNA array
Outline: as §1

[5] = variants of: B1; assay: self-cleavage kobs at 640 uM GlcN6P; higher = faster cleavage; RNA array
Outline: as §1

[6] = variants of: B1; assay: self-cleavage kobs at 2500 uM GlcN6P; higher = faster cleavage; RNA array
Outline: as §1

[7] = variants of: B1; assay: self-cleavage kobs at 10000 uM GlcN6P; higher = faster cleavage; RNA array
Outline: as §1

| Variant | kcat [1] | KM [2] | self-cleavage kobs at 40 uM GlcN6P [3] | self-cleavage kobs at 160 uM GlcN6P [4] | self-cleavage kobs at 640 uM GlcN6P [5] | self-cleavage kobs at 2500 uM GlcN6P [6] | self-cleavage kobs at 10000 uM GlcN6P [7] |
| --- | --- | --- | --- | --- | --- | --- | --- |
| A14U U54A | 0.00906 ± 0.0023 s⁻¹ | 1560 ± 560 µM | 0.000324 ± 5.9e-05 s⁻¹ | 0.000834 ± 0.00014 s⁻¹ | 0.00228 ± 0.00033 s⁻¹ | 0.00565 ± 0.00092 s⁻¹ | 0.00909 ± 0.002 s⁻¹ |
| A14G G37A U54A | 0.00578 ± 0.0027 s⁻¹ |  | 7.89e-05 ± 1.6e-05 s⁻¹ |  | 0.000505 ± 0.00013 s⁻¹ | 0.00178 ± 0.00043 s⁻¹ | 0.00406 ± 0.00062 s⁻¹ |
| A14C A42G | 0.0097 ± 0.0025 s⁻¹ | 2690 ± 890 µM | 0.000181 ± 2e-05 s⁻¹ | 0.000475 ± 7.2e-05 s⁻¹ | 0.00154 ± 0.00023 s⁻¹ | 0.00494 ± 0.00075 s⁻¹ | 0.00788 ± 0.0011 s⁻¹ |
| G13C U30C A52G | 1.64e-05 ± 4.9e-06 s⁻¹ |  |  |  |  |  |  |
| G13U U56A C67U | 0.000254 ± 9.5e-05 s⁻¹ |  |  |  |  | 0.000115 ± 3.1e-05 s⁻¹ | 0.000167 ± 3.2e-05 s⁻¹ |
| A14G A48G | 0.000249 ± 3.2e-05 s⁻¹ | 648 ± 220 µM |  | 3.64e-05 ± 1.4e-05 s⁻¹ | 0.000128 ± 1.4e-05 s⁻¹ | 0.000232 ± 2.6e-05 s⁻¹ | 0.000203 ± 2.9e-05 s⁻¹ |
| A14G A48U | 0.00132 ± 0.00027 s⁻¹ | 2320 ± 780 µM | 3.34e-05 ± 1.3e-05 s⁻¹ | 6.56e-05 ± 1.5e-05 s⁻¹ | 0.000335 ± 5.6e-05 s⁻¹ | 0.000889 ± 0.00016 s⁻¹ | 0.000999 ± 0.00013 s⁻¹ |
| A14U A33U | 0.000182 ± 2.6e-05 s⁻¹ |  |  |  |  | 2.81e-05 ± 1e-05 s⁻¹ | 7.63e-05 ± 9.8e-06 s⁻¹ |
| A14U G40C | 0.000633 ± 5.1e-05 s⁻¹ | 1980 ± 320 µM | 2.05e-05 ± 9e-06 s⁻¹ | 5.2e-05 ± 9.2e-06 s⁻¹ | 0.000142 ± 1.5e-05 s⁻¹ | 0.000391 ± 4.2e-05 s⁻¹ | 0.000522 ± 3.7e-05 s⁻¹ |
| A14U G40A | 0.0018 ± 0.0003 s⁻¹ | 1500 ± 450 µM | 4.43e-05 ± 1e-05 s⁻¹ |  | 0.000643 ± 0.00013 s⁻¹ |  | 0.00161 ± 0.00021 s⁻¹ |
| A14C U47G | 0.00101 ± 0.00014 s⁻¹ | 2500 ± 550 µM | 2.31e-05 ± 1.1e-05 s⁻¹ | 6.35e-05 ± 1.2e-05 s⁻¹ | 0.000208 ± 3e-05 s⁻¹ | 0.000422 ± 8.2e-05 s⁻¹ | 0.000874 ± 0.00012 s⁻¹ |
| A14U G37U G63U | < 1e-05 s⁻¹ |  | < 1e-05 s⁻¹ |  |  |  |  |
| G13C C71G | 2.45e-05 ± 2.8e-06 s⁻¹ |  |  |  |  |  |  |
| G13U A15U | 0.000299 ± 2e-05 s⁻¹ | 5440 ± 760 µM |  |  |  | 9.42e-05 ± 1.4e-05 s⁻¹ | 0.000194 ± 1.9e-05 s⁻¹ |
| G13U A15G | 0.00265 ± 0.0011 s⁻¹ |  |  | 0.000116 ± 5e-05 s⁻¹ | 0.000388 ± 7.5e-05 s⁻¹ | 0.000584 ± 0.00014 s⁻¹ | 0.00191 ± 0.00025 s⁻¹ |
| A14U U69A | 0.000113 ± 2e-05 s⁻¹ | 802 ± 390 µM |  |  | 5.17e-05 ± 1.1e-05 s⁻¹ | 7.13e-05 ± 1.7e-05 s⁻¹ | 0.000122 ± 2.4e-05 s⁻¹ |
